Where no end group is shown, it is not given here.

We go through two molecules from patent publication US20240400641A1 (EMORY UNIVERSITY, published 2024).

This experiment deals with T1, mouse PD-L1 (mouse, UniProt Q9EP73 19-290).
T1 construct: whole, on cells; Endogenous protein of mouse tumor cell lines; also called PD-L1 on mouse pancreatic cancer KC, Panc02 and KPC cells
The experiment is described as follows: peptide-IONP conjugates on KC and Panc02 cells, Prussian blue staining.

T1 sequence (Q9EP73 19-290): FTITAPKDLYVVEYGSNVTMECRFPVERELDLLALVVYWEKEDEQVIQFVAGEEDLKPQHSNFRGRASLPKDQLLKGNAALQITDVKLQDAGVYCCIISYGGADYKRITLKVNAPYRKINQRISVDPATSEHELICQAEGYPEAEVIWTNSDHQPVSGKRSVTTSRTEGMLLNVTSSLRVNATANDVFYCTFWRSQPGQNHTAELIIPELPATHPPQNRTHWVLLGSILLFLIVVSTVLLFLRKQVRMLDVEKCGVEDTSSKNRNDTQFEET

B1: PD-1 (Lin) peptide (peptide)
peptide: NWNRLSPSNQTEKQAACGAISLHPKAKIEESPGHHHH
modifications: also: FITC label in competition assay, place not given here, bound via His tag to NTA-Cu on IONPs or NTA-Ni beads
notes: Tested as FITC-labelled free peptide, as IONP conjugate and on NTA-Ni beads; also called PD-1 like peptide; PD-1 Lin-IONP (when conjugated to iron oxide nanoparticles)
B1: the binding result is on record as “binds”.

B2: PD-1 (Y) peptide (peptide)
peptide: NWNRLSPSNQTEKQAAPHHHHCGAISLHPKAKIEE
modifications: not fully specified; also: FITC label in competition assay, place not given here
notes: also called PDIY; PD-1 like peptide
On to B2, for which the binding result was “binds”.
